Source: paper PMC13466294, “Nucleolaron1511 and Nucleolaron1510 Facilitate Effective Intracellular Delivery of Azami Green Protein in HeLa Cells” (International Journal of Molecular Sciences, 2026)

Experiments:
four cell lines = settings: CPP fused to EGFP, across four cell lines; ref 45 (Patel et al.); cited from earlier work
Protocol: To quantify intracellular delivery, flow cytometry was performed following a stringent surface-depletion protocol. Cells were washed with an acidic glycine-NaCl solution to disrupt electrostatic interactions between surface-bound AG–CPP and the plasma membrane, then treated with trypsin, which both detaches cells from the culture plate and cleaves CPP sequences at arginine and lysine residues—amino acids abundant in all constructs tested—thereby eliminating residual surface-associated fluorescence. This protocol ensures that the measured fluorescence predominantly reflects int ...

HeLa cells [1] = test: Cellular uptake of TAMRA-labeled Nuc1510 by fluorescence microscopy; format: cell-based; settings: 5 µM in DMEM with 10% FBS, 1 h, 4 h or overnight (any incubation condition)
Protocol: To examine the intrinsic cell-penetrating ability of Nuc1510, HeLa cells were treated with TAMRA-labeled Nuc1510 prepared in medium supplemented with 10% FBS and analyzed by fluorescence microscopy at 1 h, 4 h, and overnight incubation time points.
HeLa cells were seeded at 2 × 10^4 cells per well in 8-well chamber slides (Millicell EZ Slide, Sigma-Aldrich, St. Louis, MO, USA; or µ-Slide 8 Well glass-bottom, ibidi, Gräfelfing, Germany) and allowed to adhere for 24 h. For assessment of intrinsic cell-penetrating ability, the culture medium was replaced with free TAMRA or TAMRA–Nuc1510 at 5 µM prepared in DMEM supplemented with 10% FBS. For assessment of cargo delivery, cells were treated with AG, AG–Nuc1511, AG–Nuc1510, or AG–TAT at 1, 2, or 3 µM prepared in DMEM with 10% FBS. All cargo delivery treatments were performed at 37 °C, and the highest concentration (3 µM) was additionally tested at 4 °C to assess the contribution of energy-dependent uptake pathways.
TAMRA–Nuc1510 samples were incubated for 1 h, 4 h, or overnight at 37 °C, whereas all AG–CPP samples were incubated overnight only. […] Fluorescence imaging was performed using a Keyence BZ-X800 (Keyence, Osaka, Japan) digital fluorescence microscope. […]

HeLa cells [2] = test: Cell viability by MTT assay; format: cell-based; settings: 24 h
Protocol: To assess the cytotoxic potential of Nuc1511 and Nuc1510, HeLa cells were treated with AG–Nuc1511 or AG–Nuc1510 at concentrations of 1, 3, 5, and 10 µM for 24 h, and cell viability was quantified using the MTT assay (Figure 4). AG–Nuc1511 caused a gradual concentration-dependent decline in viability, reaching approximately 78% at 10 µM, which was statistically significant relative to the untreated control. […] Taken together, both fusion proteins were well tolerated at concentrations up to 5 µM, with cytotoxicity becoming apparent only at 10 µM.
HeLa cells were seeded at 1 × 10^4 cells per well in 96-well microplates (Nunc^TM MicroWell^TM; Thermo Fisher Scientific) and allowed to adhere overnight. The culture medium was replaced with AG–Nuc1511 or AG–Nuc1510 at 1, 3, 5, or 10 µM prepared in DMEM supplemented with 10% FBS. Cell viability was assessed by MTT assay. Following 24 h incubation, treatment solutions were removed and cells were washed with PBS. A mixture of 50 µL MTT solution (Fujifilm) (5 mg/mL in PBS) and 50 µL Opti-MEM I Reduced Serum Medium (Thermo Fisher Scientific) was added to each well, and plates were incubated at 37 °C for 3 h. The medium was then removed, and formazan crystals were dissolved by addition of 150 µL MTT solvent (4 mM HCl, 0.1% NP-40 substitute in isopropanol), followed by 30 min agitation on an orbital shaker protected from light, with additional pipetting to ensure complete dissolution. Absorbance was measured at 590 nm. All conditions were performed in triplicate.

## Penetratin
Four cell lines
  Uptake efficiency relative to TAT: performed comparably to TAT

## 5(6)-carboxytetramethylrhodamine [Free TAMRA]
HeLa cells [1]
  Intracellular TAMRA fluorescence: no detectable intracellular fluorescence

## MKDHLIHNHHKEEHAHAHNKDYDIPTTHHAHHSTENLYFQGSSGSSGMSVIKPEMKIKLCMRGTVNGHNFVIEGEGKGNPYEGTQILDLNVTEGAPLPFAYDILTTVFQYGNRAFTKYPADIQDYFKQTFPEGYHWERSMTYEDQGICTATSNISMRGDCFFYDIRFDGTNFPPNGPVMQKKTLKWEPSTEKMYVRDGVLKGDVNMALLLEGGGHYRCDFKTTYKAKKDVRLPDAHKVDHRIEILKHDKDYNKVKLYENAVARYSMLPSQAKGLQQGGTGGGGSTLKERCLQVVRSLVKKKRTLRKNDRKKR [AG–Nuc1511, monomeric Azami Green genetically fused at its C-terminus via a linker to Nuc1511]
HeLa cells [2]; 10 µM, relative to untreated cells (100%), n = 3, 10 µM
  Viability (%): approximately 78%

## MKDHLIHNHHKEEHAHAHNKDYDIPTTHHAHHSTENLYFQGSSGSSGMSVIKPEMKIKLCMRGTVNGHNFVIEGEGKGNPYEGTQILDLNVTEGAPLPFAYDILTTVFQYGNRAFTKYPADIQDYFKQTFPEGYHWERSMTYEDQGICTATSNISMRGDCFFYDIRFDGTNFPPNGPVMQKKTLKWEPSTEKMYVRDGVLKGDVNMALLLEGGGHYRCDFKTTYKAKKDVRLPDAHKVDHRIEILKHDKDYNKVKLYENAVARYSMLPSQAKGLQQGGTGGGGSKVLSRVVQLCREKLTRRRRSNRR [AG–Nuc1510, monomeric Azami Green genetically fused at its C-terminus via a linker to Nuc1510]
HeLa cells [2]; 10 µM
  Reduction of viability: approximately 50%
HeLa cells [2]; 1, 3, or 5 µM, Welch's t-test against untreated control
  Effect on viability: did not significantly reduce viability
